Key:
interleukin 6 (IL-6) [1] = target: interleukin 6 (IL-6) (UniProt P05231); test: IL-6 binding ELISA; 25±2°C, 0 months
interleukin 6 (IL-6) [2] = target: interleukin 6 (IL-6) (UniProt P05231); test: IL-6 binding ELISA; 5±3°C, 6 months
interleukin 6 (IL-6) [3] = target: interleukin 6 (IL-6) (UniProt P05231); test: IL-6 binding ELISA; 25±2°C, 1 month
interleukin 6 (IL-6) [4] = target: interleukin 6 (IL-6) (UniProt P05231); test: IL-6 binding ELISA; 5±3°C, 3 months
interleukin 6 (IL-6) [5] = target: interleukin 6 (IL-6) (UniProt P05231); test: IL-6 binding ELISA; 25±2°C, 3 months
interleukin 6 (IL-6) [6] = target: interleukin 6 (IL-6) (UniProt P05231); test: IL-6 binding ELISA; 40±2°C, 1 month
interleukin 6 (IL-6) [7] = target: interleukin 6 (IL-6) (UniProt P05231); test: IL-6 binding ELISA; 5±3°C, 9 months
interleukin 6 (IL-6) [8] = target: interleukin 6 (IL-6) (UniProt P05231); test: IL-6 binding ELISA; 5±3°C, 0 months
interleukin 6 (IL-6) [9] = target: interleukin 6 (IL-6) (UniProt P05231); test: IL-6 binding ELISA; 25±2°C, 1 month; remark: listed apart in the source
interleukin 6 (IL-6) [10] = target: interleukin 6 (IL-6) (UniProt P05231); test: IL-6 binding ELISA, relative to a Phase I DS lot; 50 mg/mL formulation without methionine, T0 (frozen aliquot)
interleukin 6 (IL-6) [11] = target: interleukin 6 (IL-6) (UniProt P05231); test: IL-6 binding ELISA; 40±2°C, 1 month; remark: listed apart in the source
interleukin 6 (IL-6) [12] = target: interleukin 6 (IL-6) (UniProt P05231); test: IL-6 binding ELISA; 5±3°C, 3 months; remark: listed apart in the source
interleukin 6 (IL-6) [13] = target: interleukin 6 (IL-6) (UniProt P05231); test: IL-6 binding ELISA; 40±2°C, 1 month; remark: listed apart in the source
interleukin 6 (IL-6) [14] = target: interleukin 6 (IL-6) (UniProt P05231); test: IL-6 binding ELISA; 40±2°C, 1 month; remark: listed apart in the source
interleukin 6 (IL-6) [15] = target: interleukin 6 (IL-6) (UniProt P05231); test: IL-6 binding ELISA, relative to a Phase I DS lot; 120 mg/mL formulation without methionine, T0 (frozen aliquot)
interleukin 6 (IL-6) [16] = target: interleukin 6 (IL-6) (UniProt P05231); test: IL-6 binding ELISA; 40±2°C, 0 months
interleukin 6 (IL-6) [17] = target: interleukin 6 (IL-6) (UniProt P05231); test: IL-6 binding ELISA; 25±2°C, 12 months
interleukin 6 (IL-6) [18] = target: interleukin 6 (IL-6) (UniProt P05231); test: IL-6 binding ELISA; 5±3°C, 12 months
interleukin 6 (IL-6) [19] = target: interleukin 6 (IL-6) (UniProt P05231); test: IL-6 binding ELISA; 5±3°C, 9 months; remark: listed apart in the source
interleukin 6 (IL-6) [20] = target: interleukin 6 (IL-6) (UniProt P05231); test: IL-6 binding ELISA; 25±2°C, 6 months
interleukin 6 (IL-6) [21] = target: interleukin 6 (IL-6) (UniProt P05231); test: IL-6 binding ELISA; 25±2°C, 0 months; remark: listed apart in the source
interleukin 6 (IL-6) [22] = target: interleukin 6 (IL-6) (UniProt P05231); test: IL-6 binding ELISA, relative to a Phase I DS lot; 50 mg/mL formulation without methionine, 12 months at 2 to 8°C
interleukin 6 (IL-6) [23] = target: interleukin 6 (IL-6) (UniProt P05231); test: IL-6 binding ELISA; 25±2°C, 1 month; remark: listed apart in the source
interleukin 6 (IL-6) [24] = target: interleukin 6 (IL-6) (UniProt P05231); test: IL-6 binding ELISA; 5±3°C, 6 months; remark: listed apart in the source
interleukin 6 (IL-6) [25] = target: interleukin 6 (IL-6) (UniProt P05231); test: IL-6 binding ELISA; 25±2°C, 3 months; remark: listed apart in the source
interleukin 6 (IL-6) [26] = target: interleukin 6 (IL-6) (UniProt P05231); test: IL-6 binding ELISA; 5±3°C, 3 months; remark: listed apart in the source
interleukin 6 (IL-6) [27] = target: interleukin 6 (IL-6) (UniProt P05231); test: IL-6 binding ELISA; 40±2°C, 0 months; remark: listed apart in the source
interleukin 6 (IL-6) [28] = target: interleukin 6 (IL-6) (UniProt P05231); test: IL-6 binding ELISA; 5±3°C, 1 month
interleukin 6 (IL-6) [29] = target: interleukin 6 (IL-6) (UniProt P05231); test: IL-6 binding ELISA; 5±3°C, 0 months; remark: listed apart in the source
interleukin 6 (IL-6) [30] = target: interleukin 6 (IL-6) (UniProt P05231); test: IL-6 binding ELISA; 25±2°C, 3 months; remark: listed apart in the source
interleukin 6 (IL-6) [31] = target: interleukin 6 (IL-6) (UniProt P05231); test: IL-6 binding ELISA; 25±2°C, 0 months; remark: listed apart in the source

UniProt P05231, sequence (P05231 30-212 limits assumed): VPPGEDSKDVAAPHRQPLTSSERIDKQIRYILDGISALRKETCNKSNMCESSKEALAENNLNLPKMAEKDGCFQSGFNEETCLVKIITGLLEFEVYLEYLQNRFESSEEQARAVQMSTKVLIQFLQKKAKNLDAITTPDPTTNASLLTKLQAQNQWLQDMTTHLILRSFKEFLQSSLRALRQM

IL-6 binding ELISA (% of Reference Standard) (interleukin 6 (IL-6) [1]): 91% | IL-6 binding ELISA (% of Reference Standard) (interleukin 6 (IL-6) [2]): 97% | IL-6 binding ELISA (% of Reference Standard) (interleukin 6 (IL-6) [3]): 96% | IL-6 binding ELISA (% of Reference Standard) (interleukin 6 (IL-6) [4]): 93% | IL-6 binding ELISA (% of Reference Standard) (interleukin 6 (IL-6) [5]): 91% | IL-6 binding ELISA (% of Reference Standard) (interleukin 6 (IL-6) [6]): 95% | IL-6 binding ELISA (% of Reference Standard) (interleukin 6 (IL-6) [7]): 98% | IL-6 binding ELISA (% of Reference Standard) (interleukin 6 (IL-6) [8]): 96% | IL-6 binding ELISA (% of Reference Standard) (interleukin 6 (IL-6) [9]): 95% | IL-6 binding ELISA (% of assay control) (interleukin 6 (IL-6) [10]): 70% | IL-6 binding ELISA (% of Reference Standard) (interleukin 6 (IL-6) [11]): 92% | IL-6 binding ELISA (% of Reference Standard) (interleukin 6 (IL-6) [12]): 96% | IL-6 binding ELISA (% of Reference Standard) (interleukin 6 (IL-6) [13]): 89% | IL-6 binding ELISA (% of Reference Standard) (interleukin 6 (IL-6) [14]): 85% | IL-6 binding ELISA (% of assay control) (interleukin 6 (IL-6) [15]): 91% | IL-6 binding ELISA (% of Reference Standard) (interleukin 6 (IL-6) [16]): 94% | IL-6 binding ELISA (% of Reference Standard) (interleukin 6 (IL-6) [17]): 95% | IL-6 binding ELISA (% of Reference Standard) (interleukin 6 (IL-6) [18]): 98% | IL-6 binding ELISA (% of Reference Standard) (interleukin 6 (IL-6) [19]): 85% | IL-6 binding ELISA (% of Reference Standard) (interleukin 6 (IL-6) [20]): 82% | IL-6 binding ELISA (% of Reference Standard) (interleukin 6 (IL-6) [21]): 103% | IL-6 binding ELISA (% of assay control) (interleukin 6 (IL-6) [22]): 89% | IL-6 binding ELISA (% of Reference Standard) (interleukin 6 (IL-6) [23]): 93% | IL-6 binding ELISA (% of Reference Standard) (interleukin 6 (IL-6) [24]): 92% | IL-6 binding ELISA (% of Reference Standard) (interleukin 6 (IL-6) [25]): 90% | IL-6 binding ELISA (% of Reference Standard) (interleukin 6 (IL-6) [26]): 92% | IL-6 binding ELISA (% of Reference Standard) (interleukin 6 (IL-6) [27]): 91% | IL-6 binding ELISA (% of Reference Standard) (interleukin 6 (IL-6) [28]): 94% | IL-6 binding ELISA (% of Reference Standard) (interleukin 6 (IL-6) [29]): 91% | IL-6 binding ELISA (% of Reference Standard) (interleukin 6 (IL-6) [30]): 102% | IL-6 binding ELISA (% of Reference Standard) (interleukin 6 (IL-6) [31]): 96%
B1: COR-001 antibody (antibody, human IgG1, kappa, V domains shown)
VH: EVQLVESGGGLVQPGGSLRLSCAASGFTISSNYMIWVRQAPGKGLEWVSDLYYYAGDTYYADSVKGRFTMSRDISKNTVYLQMNSLRAEDTAVYYCARWADDHPPWIDLWGRGTLVTVSS
VL: DIQMTQSPSTLSASVGDRVTITCRASQGISSWLAWYQQKPGKAPKVLIYKASTLESGVPSRFSGSGSGTEFTLTISSLQPDDFATYYCQQSWLGGSFGQGTKLEIKR

From patent publication EP4631523A2
